# Laboratory results from publication PMC9299544.
# Read-outs that look alike come from different tables or passages of the source.
# Experiments:
# [1] = target: wild-type mouse myosin-15 motor domain with 2 IQ motifs (MD-2IQ), heavy chain (mouse); assay: SEC; heavy chain, ELC and RLC co-expressed in Sf9; FLAG M2 resin, MonoQ, then Superdex 200 in 10 mM Mops, 100 mM KCl, 0.1 mM EGTA, pH 7.0; single peak
# F-actin [2] = target: F-actin (UniProt P68133); conditions: cited from earlier work
# F-actin [3] = target: F-actin (UniProt P68133); conditions: cited from earlier work; remark: listed apart in the source
# [4] = target: chicken skeletal muscle actin (ADP F-actin) (chicken) (UniProt P68139); assay: cryo-EM structure; Mg-ADP state: wild-type myosin-15 incubated with 5 mM ADP-Mg for 20 min, applied to 0.6 uM ADP F-actin on the grid; else as for the rigor samples
# [5] = target: chicken skeletal muscle actin (ADP F-actin) (chicken) (UniProt P68139); assay: cryo-EM structure; rigor state: 6 uM myosin-15 treated with apyrase (10 U/ml), applied twice to 0.6 uM ADP F-actin on the grid; KMEI buffer with 0.01% NP-40 substitute; 25°C; helical reconstruction, symmetry expansion and focused classification
substance,measurement,setting,value
bovine smooth muscle essential light chain (ELC; MYL6) (from UniProt P60661 1-151) (natural protein),stoichiometry N,[1],1
chicken regulatory light chain (RLC; MYL12B) (natural protein),stoichiometry N,[1],1
myosin-15 motor domain (from UniProt Q9QZZ4),Kd,F-actin [2],0.31 µM
same,Kd,F-actin [3],0.2 µM
"wild-type mouse myosin-15 motor domain with 2 IQ motifs (MD-2IQ), as the myosin-15:ELC:RLC complex (from UniProt P60661 1-151)",stoichiometry N,[4],1
same,stoichiometry N,[5],1
